Measured values as given in publication PMC12239786, “SARS-CoV-2 RNA-binding protein suppresses extracellular miRNA release”.

Key:
His-Nsp9 = His-Nsp9 (SARS-CoV-2, UniProt P0DTD1 4141-4253); experiment: fluorescence polarization; 100 nM RNA; FP: 20 mM HEPES pH 7.0, 150 mM NaCl, 2 mM MgCl2, 10 mM DTT, 1 U/ul RiboLock, 5 min at room temperature; NMR: 20 mM HEPES pH 7.0, 15 mM NaCl, 0.5 mM TCEP, 0.02%; conditions: protein: recombinant; tags: His; chain copies: 2; label: 3' Cy3
[1] = target: AUF1 (RNA-binding domain on protein array) (human, UniProt Q14103 97-261); experiment: protein microarray; FP: 20 mM HEPES pH 7.0, 150 mM NaCl, 2 mM MgCl2, 10 mM DTT, 1 U/ul RiboLock, 5 min at room temperature; NMR: 20 mM HEPES pH 7.0, 15 mM NaCl, 0.5 mM TCEP, 0.02%; conditions: protein: recombinant; label: 5' biotin
[2] = target: NCL (RNA-binding domain on protein array) (human, UniProt P19338 307-647); experiment: as above; conditions: protein: recombinant; label: 5' biotin
NCL (RNA-binding domain on protein array), sequence (P19338 307-647): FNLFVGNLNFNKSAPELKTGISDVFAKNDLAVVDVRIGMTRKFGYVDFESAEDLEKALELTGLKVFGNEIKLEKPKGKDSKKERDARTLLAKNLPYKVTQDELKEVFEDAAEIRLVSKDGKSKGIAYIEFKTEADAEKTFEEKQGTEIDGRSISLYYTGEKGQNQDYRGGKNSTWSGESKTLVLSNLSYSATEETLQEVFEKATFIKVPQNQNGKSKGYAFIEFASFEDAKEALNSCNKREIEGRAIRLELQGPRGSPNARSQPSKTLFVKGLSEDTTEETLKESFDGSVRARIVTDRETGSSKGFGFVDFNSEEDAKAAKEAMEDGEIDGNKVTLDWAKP

AUF1 (RNA-binding domain on protein array), sequence (Q14103 97-261): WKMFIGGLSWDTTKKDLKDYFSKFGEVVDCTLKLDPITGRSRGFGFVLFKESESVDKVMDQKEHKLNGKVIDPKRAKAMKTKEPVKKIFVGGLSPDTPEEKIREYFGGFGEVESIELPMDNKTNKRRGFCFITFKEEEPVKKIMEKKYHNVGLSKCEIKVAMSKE

Row | Binder | Kd (His-Nsp9) [nM] | binding result (His-Nsp9) | also measured
1 | UGAGGUAGUAGGUUGUGUGGUU (ssRNA, 5' phosphate) [let-7b-Cy3] | ~15 | – | –
2 | CAGUGCAAUGAUGAAAGGGCAU (ssRNA, 5' phosphate) [miR-130b-Cy3] | ~63 | – | –
3 | UGAGGUAGUAGGUUGCCAUUAU (ssRNA, 5' phosphate) [mutant let-7b-Cy3] | – | no binding | –
4 | UAGCUUAUCAGACUGAUGUUGA (ssRNA, 5' phosphate) [miR-21-Cy3] | – | no binding | –
5 | UGAGGUAGUAGGUUGUGUGGUU (ssRNA) [let-7b-biotin] | – | – | binding result [1]: binds; binding result [2]: binds
